The values below come from patent publication US20120034160A1 (AbbVie / Abbott, published 2012).

For one experiment, the target named is Recombinant Human IL-1β (human, UniProt P01584 117-269). Kind of experiment: cell-based or functional assay.
The target in the next experiment is T1, Recombinant Human IL-17 (human, UniProt Q16552 20-155, limits assumed).
T1 sequence (looked up): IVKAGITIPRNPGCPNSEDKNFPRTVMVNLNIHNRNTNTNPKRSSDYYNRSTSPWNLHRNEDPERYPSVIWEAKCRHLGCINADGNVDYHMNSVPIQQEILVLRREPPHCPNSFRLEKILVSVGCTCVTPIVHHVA
Kind of experiment: cell-based or functional assay.

B1: DVD1591 (bispecific antibody, human IgG1, kappa)
heavy: not shown
light: DIQMTQSPSSLSASVGDRVTITCRASGNIHNYLTWYQQTPGKAPKLLIYNAKTLADGVPSRFSGSGSGTDYTFTISSLQPEDIATYYCQHFWSIPYTFGQGTKLQITRTVAAPSVFIFPPDIQMTQSPSSLSASVGDRVTITCRASSGIISYIDWFQQKPGKAPKRLIYATFDLASGVPSRFSGSGSGTDYTLTISSLQPEDFATYYCRQVGSYPETFGQGTKLEIKRTVAAPSVFIFPPSDEQLKSGTASVVCLLNNFYPREAKVQWKVDNALQSGNSQESVTEQDSKDSTYSLSSTLTLSKADYEKHKVYACEVTHQGLSSPVTKSFNRGEC
For the molecule B1, the “N-Terminal VD IL-1β Neutralization Assay EC50” value in the experiment with Recombinant Human IL-1β came out at 0.0023 nM. Also, the “C-terminal VD IL-17 Neutralization Assay EC50” value with Recombinant Human IL-17 turned out to be 0.0393 nM.

B2: DVD1592 (bispecific antibody, human IgG1, kappa)
heavy: not shown
light: DIQMTQSPSSLSASVGDRVTITCRASSGIISYIDWFQQKPGKAPKRLIYATFDLASGVPSRFSGSGSGTDYTLTISSLQPEDFATYYCRQVGSYPETFGQGTKLEIKRTVAAPSVFIFPPDIQMTQSPSSLSASVGDRVTITCRASGNIHNYLTWYQQTPGKAPKLLIYNAKTLADGVPSRFSGSGSGTDYTFTISSLQPEDIATYYCQHFWSIPYTFGQGTKLQITRTVAAPSVFIFPPSDEQLKSGTASVVCLLNNFYPREAKVQWKVDNALQSGNSQESVTEQDSKDSTYSLSSTLTLSKADYEKHKVYACEVTHQGLSSPVTKSFNRGEC
As to B2, the “C-Terminal VD IL-1β Neutralization Assay EC50” value with Recombinant Human IL-1β worked out at 0.109 nM. For the same molecule, the “N-terminal VD IL-17 Neutralization Assay EC50” value in the experiment with Recombinant Human IL-17 is 0.0117 nM.

B3: DVD1595 (bispecific antibody, human IgG1, kappa)
heavy: not shown
light: DTVVTQSPAFLSVTPGEKVTITCITSTDIDVDMNWYQQKPDQPPKLLISQGNTLRPGVPSRFSSSGSGTDFTFTISSLEAEDAATYYCLQSDNLPLTFGQGTKLEIKRTVAAPSVFIFPPDIQMTQSPSSLSASVGDRVTITCRASSGIISYIDWFQQKPGKAPKRLIYATFDLASGVPSRFSGSGSGTDYTLTISSLQPEDFATYYCRQVGSYPETFGQGTKLEIKRTVAAPSVFIFPPSDEQLKSGTASVVCLLNNFYPREAKVQWKVDNALQSGNSQESVTEQDSKDSTYSLSSTLTLSKADYEKHKVYACEVTHQGLSSPVTKSFNRGEC
Take B3: the “N-Terminal VD IL-1β Neutralization Assay EC50” value in the experiment with Recombinant Human IL-1β was 0.204 nM. Besides, the “C-terminal VD IL-17 Neutralization Assay EC50” value with Recombinant Human IL-17 is 0.0019 nM.

B4: DVD1599 (bispecific antibody, human IgG1, kappa)
heavy: not shown
light: DIQMTQSPSSLSASVGDRVTITCRASGNIHNYLTWYQQTPGKAPKLLIYNAKTLADGVPSRFSGSGSGTDYTFTISSLQPEDIATYYCQHFWSIPYTFGQGTKLQITRTVAAPSVFIFPPEIVLTQSPDFQSVTPKEKVTITCRASQDIGSELHWYQQKPDQPPKLLIKYASHSTSGVPSRFSGSGSGTDFTLTINGLEAEDAGTYYCHQTDSLPYTFGPGTKVDIKRTVAAPSVFIFPPSDEQLKSGTASVVCLLNNFYPREAKVQWKVDNALQSGNSQESVTEQDSKDSTYSLSSTLTLSKADYEKHKVYACEVTHQGLSSPVTKSFNRGEC
Take B4: in the experiment with Recombinant Human IL-1β, the “N-Terminal VD IL-1β Neutralization Assay EC50” value is 0.0048 nM. Also, in the experiment with Recombinant Human IL-17, the “C-terminal VD IL-17 Neutralization Assay EC50” value worked out at 0.0504 nM.

B5: DVD1594 (bispecific antibody, human IgG1, kappa)
heavy: not shown
light: DIQMTQSPSSLSASVGDRVTITCRASSGIISYIDWFQQKPGKAPKRLIYATFDLASGVPSRFSGSGSGTDYTLTISSLQPEDFATYYCRQVGSYPETFGQGTKLEIKRTVAAPSVFIFPPDTQVTQSPSSLSASVGDRVTITCITSTDIDVDMNWYQQKPGKPPKLLISQGNTLRPGVPSRFSSSGSGTDFTFTISSLQPEDFATYYCLQSDNLPLTFGQGTKLEIKRTVAAPSVFIFPPSDEQLKSGTASVVCLLNNFYPREAKVQWKVDNALQSGNSQESVTEQDSKDSTYSLSSTLTLSKADYEKHKVYACEVTHQGLSSPVTKSFNRGEC
With B5, the “C-Terminal VD IL-1β Neutralization Assay EC50” value in the experiment with Recombinant Human IL-1β is 9.1 nM. The “N-terminal VD IL-17 Neutralization Assay EC50” value with Recombinant Human IL-17 is 0.0025 nM.

B6: DVD1598 (bispecific antibody, human IgG1, kappa)
heavy: not shown
light: DIQMTQSPSSLSASVGDRVTITCRASSGIISYIDWFQQKPGKAPKRLIYATFDLASGVPSRFSGSGSGTDYTLTISSLQPEDFATYYCRQVGSYPETFGQGTKLEIKRTVAAPSVFIFPPETTVTQSPSSLSASVGDRVTITCITSTDIDVDMNWYQQKPGKPPKLLISQGNTLRPGVPSRFSSSGSGTDFTFTISSLQPEDFATYYCLQSDNLPLTFGQGTKLEIKRTVAAPSVFIFPPSDEQLKSGTASVVCLLNNFYPREAKVQWKVDNALQSGNSQESVTEQDSKDSTYSLSSTLTLSKADYEKHKVYACEVTHQGLSSPVTKSFNRGEC
Consider B6, for which the “C-Terminal VD IL-1β Neutralization Assay EC50” value in the experiment with Recombinant Human IL-1β amounted to 11.9 nM. In addition, the “N-terminal VD IL-17 Neutralization Assay EC50” value with Recombinant Human IL-17 worked out at 0.0053 nM.

B7: DVD1596 (bispecific antibody, human IgG1, kappa)
heavy: not shown
light: DIQMTQSPSSLSASVGDRVTITCRASSGIISYIDWFQQKPGKAPKRLIYATFDLASGVPSRFSGSGSGTDYTLTISSLQPEDFATYYCRQVGSYPETFGQGTKLEIKRTVAAPSVFIFPPDTVVTQSPAFLSVTPGEKVTITCITSTDIDVDMNWYQQKPDQPPKLLISQGNTLRPGVPSRFSSSGSGTDFTFTISSLEAEDAATYYCLQSDNLPLTFGQGTKLEIKRTVAAPSVFIFPPSDEQLKSGTASVVCLLNNFYPREAKVQWKVDNALQSGNSQESVTEQDSKDSTYSLSSTLTLSKADYEKHKVYACEVTHQGLSSPVTKSFNRGEC
For the molecule B7, the “C-Terminal VD IL-1β Neutralization Assay EC50” value in the experiment with Recombinant Human IL-1β was 3.44 nM. In addition, in the experiment with Recombinant Human IL-17, the “N-terminal VD IL-17 Neutralization Assay EC50” value came to 0.0007 nM.

B8: DVD1593 (bispecific antibody, human IgG1, kappa)
heavy: not shown
light: DTQVTQSPSSLSASVGDRVTITCITSTDIDVDMNWYQQKPGKPPKLLISQGNTLRPGVPSRFSSSGSGTDFTFTISSLQPEDFATYYCLQSDNLPLTFGQGTKLEIKRTVAAPSVFIFPPDIQMTQSPSSLSASVGDRVTITCRASSGIISYIDWFQQKPGKAPKRLIYATFDLASGVPSRFSGSGSGTDYTLTISSLQPEDFATYYCRQVGSYPETFGQGTKLEIKRTVAAPSVFIFPPSDEQLKSGTASVVCLLNNFYPREAKVQWKVDNALQSGNSQESVTEQDSKDSTYSLSSTLTLSKADYEKHKVYACEVTHQGLSSPVTKSFNRGEC
With B8, in the experiment with Recombinant Human IL-1β, the “N-Terminal VD IL-1β Neutralization Assay EC50” value is 0.184 nM. For the same molecule, the “C-terminal VD IL-17 Neutralization Assay EC50” value in the experiment with Recombinant Human IL-17 came to 0.001 nM.

B9: DVD1597 (bispecific antibody, human IgG1, kappa)
heavy: not shown
light: ETTVTQSPSSLSASVGDRVTITCITSTDIDVDMNWYQQKPGKPPKLLISQGNTLRPGVPSRFSSSGSGTDFTFTISSLQPEDFATYYCLQSDNLPLTFGQGTKLEIKRTVAAPSVFIFPPDIQMTQSPSSLSASVGDRVTITCRASSGIISYIDWFQQKPGKAPKRLIYATFDLASGVPSRFSGSGSGTDYTLTISSLQPEDFATYYCRQVGSYPETFGQGTKLEIKRTVAAPSVFIFPPSDEQLKSGTASVVCLLNNFYPREAKVQWKVDNALQSGNSQESVTEQDSKDSTYSLSSTLTLSKADYEKHKVYACEVTHQGLSSPVTKSFNRGEC
Take B9: the “N-Terminal VD IL-1β Neutralization Assay EC50” value in the experiment with Recombinant Human IL-1β was determined as 0.326 nM. Further, the “C-terminal VD IL-17 Neutralization Assay EC50” value with Recombinant Human IL-17 was 0.0008 nM.

B10: DVD1600 (bispecific antibody, human IgG1, kappa)
heavy: not shown
light: EIVLTQSPDFQSVTPKEKVTITCRASQDIGSELHWYQQKPDQPPKLLIKYASHSTSGVPSRFSGSGSGTDFTLTINGLEAEDAGTYYCHQTDSLPYTFGPGTKVDIKRTVAAPSVFIFPPDIQMTQSPSSLSASVGDRVTITCRASGNIHNYLTWYQQTPGKAPKLLIYNAKTLADGVPSRFSGSGSGTDYTFTISSLQPEDIATYYCQHFWSIPYTFGQGTKLQITRTVAAPSVFIFPPSDEQLKSGTASVVCLLNNFYPREAKVQWKVDNALQSGNSQESVTEQDSKDSTYSLSSTLTLSKADYEKHKVYACEVTHQGLSSPVTKSFNRGEC
B10: the “C-Terminal VD IL-1β Neutralization Assay EC50” value with Recombinant Human IL-1β is 0.794 nM. Further, the “N-terminal VD IL-17 Neutralization Assay EC50” value in the experiment with Recombinant Human IL-17 came out at 0.0055 nM.
